Source: patent US20160355553A1 (Janssen / Centocor, published 2016)

How the values were obtained:
[1] = molecular target: mini1 cluster11 (A/Brisbane/59/2007) (influenza A virus H1N1, UniProt A8C8J4 18-565); test: FACS on HEK293F
[2] = molecular target: mini2 cluster11 (A/Brisbane/59/2007) (influenza A virus H1N1, UniProt A8C8J4 18-565); test: FACS on HEK293F
[3] = molecular target: mini3 cluster11 (A/Brisbane/59/2007) (influenza A virus H1N1, UniProt A8C8J4 18-565); test: FACS on HEK293F
H3 Mini-HA cluster 1 = H3 Mini-HA cluster 1 (influenza A virus H3N2, UniProt O11283 17-566); test: FACS on HEK293F [D00010 FIG. 8B]
H3 Mini-HA cluster 1+2 = H3 Mini-HA cluster 1+2 (influenza A virus H3N2, UniProt O11283 17-566); test: FACS on HEK293F [D00010 FIG. 8B]
H3 Mini-HA cluster 1+3 = H3 Mini-HA cluster 1+3 (influenza A virus H3N2, UniProt O11283 17-566); test: FACS on HEK293F [D00010 FIG. 8B]
H3 Mini-HA cluster 1+4 = H3 Mini-HA cluster 1+4 (influenza A virus H3N2, UniProt O11283 17-566); test: FACS on HEK293F [D00010 FIG. 8B]
H3 Mini-HA cluster 1+6 = H3 Mini-HA cluster 1+6 (influenza A virus H3N2, UniProt O11283 17-566); test: FACS on HEK293F [D00010 FIG. 8B]
H3 Mini-HA cluster 1+7 = H3 Mini-HA cluster 1+7 (influenza A virus H3N2, UniProt O11283 17-566); test: FACS on HEK293F [D00010 FIG. 8B]
H3 Mini-HA cluster 1+8 = H3 Mini-HA cluster 1+8 (influenza A virus H3N2, UniProt O11283 17-566); test: FACS on HEK293F [D00010 FIG. 8B]
H3-mini2 = H3-mini2 (influenza A virus H3N2, UniProt O11283 17-566); test: FACS on HEK293F [D00012 FIG. 9B]
H3-mini2-cl9+10 = H3-mini2-cl9+10 (influenza A virus H3N2, UniProt O11283 17-566); test: FACS on HEK293F [D00012 FIG. 9B]
H3-mini2-cl9+11 = H3-mini2-cl9+11 (influenza A virus H3N2, UniProt O11283 17-566); test: FACS on HEK293F [D00012 FIG. 9B]
H3-mini2-cl9+10+11 = H3-mini2-cl9+10+11 (influenza A virus H3N2, UniProt O11283 17-566); test: FACS on HEK293F [D00012 FIG. 9B]
H3-mini2-cl9+10+11-tri = H3-mini2-cl9+10+11-tri (influenza A virus H3N2); test: FACS on HEK293F [D00012 FIG. 9B]
H3mini2-cl9+10+11-GCN4 = H3mini2-cl9+10+11-GCN4 (influenza A virus H3N2); test: FACS on HEK293F [D00012 FIG. 9B]
H3-mini2-cl9+10+11+12 = H3-mini2-cl9+10+11+12 (influenza A virus H3N2, UniProt O11283 17-566); test: FACS on HEK293F [D00012 FIG. 9B]
H3-mini2-cl9+10+12 = H3-mini2-cl9+10+12 (influenza A virus H3N2, UniProt O11283 17-566); test: FACS on HEK293F [D00012 FIG. 9B]
[4] = molecular target: H3-mini2-cl9+10+11+12-GCN4 (influenza A virus H3N2, UniProt O11283 17-566); test: FACS on HEK293F [D00012 FIG. 9B]
[5] = molecular target: H3-mini2-cl9+10+11+12-tri (influenza A virus H3N2, UniProt O11283 17-566); test: FACS on HEK293F [D00012 FIG. 9B]
H3-mini2-cl9+13 = H3-mini2-cl9+13 (influenza A virus H3N2, UniProt O11283 17-566); test: FACS on HEK293F [D00012 FIG. 9B]
H3-mini2-cl9+10+11+13 = H3-mini2-cl9+10+11+13 (influenza A virus H3N2, UniProt O11283 17-566); test: FACS on HEK293F [D00012 FIG. 9B]
[6] = molecular target: H3-mini2-cl9+10+11+13-GCN4 (influenza A virus H3N2); test: FACS on HEK293F [D00012 FIG. 9B]
[7] = molecular target: H3-mini2-cl9+10+11+13-tri (influenza A virus H3N2); test: FACS on HEK293F [D00012 FIG. 9B]
H3-mini3-cl9+10+11+12+14 = H3-mini3-cl9+10+11+12+14 (influenza A virus H3N2, UniProt O11283 17-566); test: FACS on HEK293F [D00012 FIG. 9B]
H3-mini4-cl9+10+11+12+14 = H3-mini4-cl9+10+11+12+14 (influenza A virus H3N2, UniProt O11283 17-566); test: FACS on HEK293F [D00012 FIG. 9B]
[8] = molecular target: H3 Full-length A/Hong Kong/1/1968 (influenza A virus H3N2, UniProt Q91MA7 17-566); test: FACS on HEK293F [D00014 FIG. 10B]

B1: CR6261 (antibody, V domains shown)
VH: EVQLVESGAEVKKPGSSVKVSCKASGGPFRSYAISWVRQAPGQGPEWMGGIIPIFGTTKYAPKFQGRVTITADDFAGTVYMELSSLRSEDTAMYYCAKHMGYQVRETMDVWGKGTTVTVSS
VL: QSVLTQPPSVSAAPGQKVTISCSGSSSNIGNDYVSWYQQLPGTAPKLLIYDNNKRPSGIPDRFSGSKSGTSATLGITGLQTGDEANYYCATWDRRPTAYVVFGGGTKLTVLG
- binding result [1]: binds
- binding result [2]: binds
- binding result [3]: binds
- binding result (H3 Mini-HA cluster 1): no binding (tested: 5 ug/ml)
- binding result (H3 Mini-HA cluster 1+2): no binding (tested: 5 ug/ml)
- binding result (H3 Mini-HA cluster 1+3): no binding (tested: 5 ug/ml)
- binding result (H3 Mini-HA cluster 1+4): no binding (tested: 5 ug/ml)
- binding result (H3 Mini-HA cluster 1+6): no binding (tested: 5 ug/ml)
- binding result (H3 Mini-HA cluster 1+7): no binding (tested: 5 ug/ml)
- binding result (H3 Mini-HA cluster 1+8): no binding (tested: 5 ug/ml)
- binding result (H3-mini2): no binding (tested: 5 ug/ml)
- binding result (H3-mini2-cl9+10): no binding (tested: 5 ug/ml)
- binding result (H3-mini2-cl9+11): no binding (tested: 5 ug/ml)
- binding result (H3-mini2-cl9+10+11): no binding (tested: 5 ug/ml)
- binding result (H3-mini2-cl9+10+11-tri): no binding (tested: 5 ug/ml)
- binding result (H3mini2-cl9+10+11-GCN4): no binding (tested: 5 ug/ml)
- binding result (H3-mini2-cl9+10+11+12): no binding (tested: 5 ug/ml)
- binding result (H3-mini2-cl9+10+12): no binding (tested: 5 ug/ml)
- binding result [4]: no binding (tested: 5 ug/ml)
- binding result [5]: no binding (tested: 5 ug/ml)
- binding result (H3-mini2-cl9+13): no binding (tested: 5 ug/ml)
- binding result (H3-mini2-cl9+10+11+13): no binding (tested: 5 ug/ml)
- binding result [6]: no binding (tested: 5 ug/ml)
- binding result [7]: no binding (tested: 5 ug/ml)
- binding result (H3-mini3-cl9+10+11+12+14): no binding (tested: 5 ug/ml)
- binding result (H3-mini4-cl9+10+11+12+14): no binding (tested: 5 ug/ml)
- binding result [8]: no binding (tested: 5 ug/ml)
